Source: PMC3098241, “Amyloid-Associated Nucleic Acid Hybridisation” (PLoS ONE, 2011)

B1: TVQFHMH (peptide)
peptide: TVQFHMH
notes: source: synthetic peptide, bought: GL Biochem (PR China) or Peptide 2.0 (USA), 95% purity
B2: STVIIE (peptide)
peptide: STVIIE
notes: source: synthetic peptide, bought: Severn Biotech (UK), HPLC-purified

Legend:
[1] = target: the molecule itself; test: X-ray fibre diffraction; dried aligned stalks from gels of peptide with salmon testis DNA or poly(A) RNA (5 mM (KL)5 + 5 mM DNA, pH 7, 150 mM NaCl; 16 mM (HL)5 + 10 mM poly(A) RNA pH 6; 1.6 mM TVQFHMH + 1.6 mM DNA pH 5.0; 16 mM TVQFHMH + 10 mM poly(A) RNA pH 6.0; 10 mM (KL)3 + 10 mM DNA; 5 mM (HL)3 + 5 mM DNA pH 6.2); cross-beta pattern as the sign of peptide self-assembly
[2] = target: the molecule itself; test: circular dichroism + transmission electron microscopy; 0.8 mM STVIIE, 20 mM glycine pH 2.6, 20 C, spectra every 30 min for 24 h, without or with 242 nM 33mer DNA oligonucleotide (1:100 charge ratio); random coil to beta-sheet transition and fibrils

Protein	binding result [1]	binding result [2]
B1	binds	–
B2	–	binds
